Assay [1] has as its target B7-H3 antigen protein (UniProt Q5ZPR3). As to the kind of experiment: blocking ELISA, coated B7-H3 10 µg/mL; no blocker (m2Y31 0 µg/mL); hu2Y31 2 µg/mL. (In an ELISA, binding on a coated surface is turned into a signal by an enzyme label.)
Assay [2] has the same target. Nature of the assay: blocking ELISA, coated B7-H3 10 µg/mL; no blocker (m1B4 0 µg/mL); 8H9 2 µg/mL.
The target is the same in assay [3]. Nature of the assay: blocking ELISA, coated B7-H3 10 µg/mL; no blocker (m2Y31 0 µg/mL); 8H9 2 µg/mL.

Where “and” joins values, the source holds several entries; their conditions need not be identical. Equal entries are not always repeated.

Sequence of B7-H3 antigen protein (Q5ZPR3 29-461): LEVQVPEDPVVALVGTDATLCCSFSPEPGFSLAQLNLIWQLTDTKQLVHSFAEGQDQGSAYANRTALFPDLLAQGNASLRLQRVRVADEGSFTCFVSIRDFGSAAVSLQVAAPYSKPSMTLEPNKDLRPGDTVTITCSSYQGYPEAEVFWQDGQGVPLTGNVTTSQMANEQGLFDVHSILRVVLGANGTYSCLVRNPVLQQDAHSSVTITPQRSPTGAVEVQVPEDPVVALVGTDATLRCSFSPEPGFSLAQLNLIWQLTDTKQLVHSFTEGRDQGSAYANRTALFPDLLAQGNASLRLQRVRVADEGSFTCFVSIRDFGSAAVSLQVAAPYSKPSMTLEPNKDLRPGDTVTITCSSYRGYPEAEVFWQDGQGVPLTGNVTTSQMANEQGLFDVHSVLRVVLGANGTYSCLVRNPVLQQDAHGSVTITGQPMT

B1: humanized 2Y31 antibody (antibody, V domains shown)
VH: EVQLVESGGGLVKPGGSLKLSCAASGFAFSRYDMSWVRQSPEKRLEWVATISDDGRHTYDRDSVKGRFTISRDNAKNTLYLQMSSLRSEDTALYYCVRHRAITTARFDYWGQGTTVTVSS
VL: DIVMTQSPSSLSVSLGDTVSITCKASQDIYSNIGWLQQLPGQSFKGLIYHGTNLEDGVPSRFSGSGSGTDYSLTISGLESEDFADYYCLQYVQFPYTFGGGTKLEIKA
With B1, the OD value (450 nm) in the assay with B7-H3 antigen protein [1] is 2.07 OD450 and 2.02 OD450.

B2: antibody 8H9 (antibody, from another filing, V domains shown)
VH: QVQLQQSGAELVKPGASVKLSCKASGYTFTNYDINWVRQRPEQGLEWIGWIFPGDGSTQYNEKFKGKATLTTDTSSSTAYMQLSRLTSEDSAVYFCARQTTATWFAYWGQGTLVTVSA
VL: DIVMTQSPATLSVTPGDRVSLSCRASQSISDYLHWYQQKSHESPRLLIKYASQSISGIPSRFSGSGSGSDFTLSINSVEPEDVGVYYCQNGHSFPLTFGAGTKLELKR
For the molecule B2, the OD value (450 nm) with B7-H3 antigen protein [2] is 3.38 OD450 and 3.39 OD450; in the assay with B7-H3 antigen protein [3], 2.36 OD450.

The record behind these values is patent EP4644420A1 (Unicet Biotech. LLC, dated 2025).
